Experimental data taken from the nanobody polyreactivity screen of Harvey et al. (2022).

Experiment: yeast display, Sf9 membrane polyspecificity reagent, FACS + sequencing; frameworks hold sequencing errors
Procedure, shortened: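 A nanobody's polyreactivity label depends on the gate it was sorted from. Yeast display cells were stained with 10% biotinylated, detergent-solubilized Sf9 membrane reagent for 1 hour at 4 °C, enriched on streptavidin microbeads and sorted by FACS. The low and high (top ~1%) gates were set on anti-HA fluorescence for expression and streptavidin fluorescence for reagent binding.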

Row | Sequence | polyreactivity (PSR sort gate)
1 | QVQLVESGGGLVQAGGSLRLSCAASGNTFAVNAMGWYRQAPGKERELVAAISKRGGRTYYADSVKGRFTISRDNAKNTVYLQMNSLKPEDTAVYYCNTGYIFSSFYSSKYGYWGQGTQVTVSS | high polyreactivity
2 | QVQLVESGGGLVQAGGSLRLSCAASGNTFDGYDMGWYRQAPGKERELVAAITNTGASTYYADSVKGRFTISRDNAKNTVYLQMNSLKPEDTAVYYCIAQDSYPEDRHGMSYWGQGTQVTVSS | low polyreactivity
3 | QVQLVESGGGLVQAGGSLRLSCAASGNTFDIYAMGWYRQAPGKERELVAAISRRGGSTYYADSVKGRFTISRDNAKNTVYLQMNSLKPEDTAVYYCNTYSGPYSISDYWGQGTQVTVSS | high polyreactivity
4 | QVQLVESGGGLVQAGGSLRLSCAASGNTFDIYTMGWYRPAPGKERELVATISSGGRTNYADSVKGRFTISRDNAKNTVYLQMNSLNPEDTAVYYCAKNLRYVWWYDHFRPYGYWGQGTQVTVSS | high polyreactivity
5 | QVQLVESGGGLVQAGGSLRLSCAASGNTFDVYVMGWYRQAPGKERELVAAINKGGGRTYYADSVKGRFTISRDNAKNTVYLQMNSLKPEDTAVYYCAAVSPKYESSYYYWGQGTQVTVSS | high polyreactivity
6 | QVQLVESGGGLVQAGGSLRLSCAASGNTFEHYAMGWYRQAPGKERELVAAISYSGGSTYYADSVKGRFTISRDNAKNTVYLQMNSLKPEDTAVYYCNARGRASATGRRGRPDPFGYWGQGTQVTVSS | high polyreactivity
7 | QVQLVESGGGLVQAGGSLRLSCAASGNTFFDNAMGWYRQAPGKERELVAAITFSGGSTYYADSVKGRFTISRDNAKNTVYLQMNSLKPEDTAVYYCAAVIRSRYSYYEYDYWGQGTQVTVSS | high polyreactivity
8 | QVQLVESGGGLVQAGGSLRLSCAASGNTFFLNAMGWYRQAPGKERELVAAITSSGGSTYYADSVKGRFTISRDNAKNTVYLQMNSLKPEDTAVYYCATDRSYPPRSLNRRGPYEYWGQGTQVTVSS | low polyreactivity
9 | QVQLVESGGGLVQAGGSLRLSCAASGNTFFRYAMGWYRQAPGKERELVAAISKSGGSTYYADSVKGRFTISRDNAKNTVYLQMNSLKPEDTAVYYCAAYSPYGRYDYWGQGTQVTVSS | high polyreactivity
10 | QVQLVESGGGLVQAGGSLRLSCAASGNTFGFNAMGWYTQAPGKERELVAAIRRGSGRTYYADSVKGRFTISRDNAKNTVYLQMNSLKPEDTAVYYCAAAPTTGKRPGYYYWGLGTQVTVSS | high polyreactivity
11 | QVQLVESGGGLVQAGGSLRLSCAASGNTFGGYAMGWYRQAPGKERELVATISYADSVKGRFTISRDNAKNTVYLQMNSLKPEDTAVYYCNKQFGYPWEYYSYSYDYWGQGTQVTVSS | low polyreactivity
12 | QVQLVESGGGLVQAGGSLRLSCAASGNTFGLYAMGWYIQAPGKERELVAAIRRGGRTYADSVKGRFTISRDNAKNTVYGQMNSLKPEDTAVYYCAAYYVFLDNDYWGQGSQVTVSS | high polyreactivity
13 | QVQLVESGGGLVQAGGSLRLSCAASGNTFGNYGMGWYRQAPGKEREFVAAITSRGTSTYYADSVKGRFTISRDNAKNTVYLQMNSLKPEDTAVYYCNARPRYKYPRYDYWVQGTQVTVSS | high polyreactivity
14 | QVQLVESGGGLVQAGGSLRLSCAASGNTFGTYVMGWYRPAPGKERELVAAISQSGGSTDYADSVKGRFTISRDNAKKTVYLQMNSLKPEDTAVYYCAKVTWGTVWYRSPSEYDYWGQGTQVTVSS | low polyreactivity
15 | QVQLVESGGGLVQAGGSLRLSCAASGNTFHPYAMGWYRQAPGKERELVAAITKSGGSTYYADSVKGRFTISRDNAKNTVYLQMNSLKPEDTAFYYCAAESYIEYYLKYDYWGQGSQVTVSS | low polyreactivity
16 | QVQLVESGGGLVQAGGSLRLSCAASGNTFIYYAMGWYRQAPGKERELVAAISRSGGSTYYADSVKGRFTISRDNAKNTVYLQMNSLKPEDTAVYYCAAEATKWIGVVTMDYWGQGTQVTVSS | high polyreactivity
17 | QVQLVESGGGLVQAGGSLRLSCAASGNTFKGYAMGSYRPAPGKERELVAAISWSGSSTYYADSVKGRFTISRDNAKNTVYLQMNSLKPEDTAVYYCAKAFKYTSPRRPYDYWGQGTQVTVSS | high polyreactivity
18 | QVQLVESGGGLVQAGGSLRLSCAASGNTFKYYVMGWYRQAPGKERELVAAITRGGSTYYADSVKGRFTISRDNAKNTVYLQMNSLKPEDTAVYYCATDVKIPNFDYWGQGTQVTVSS | high polyreactivity
19 | QVQLVESGGGLVQAGGSLRLSCAASGNTFLPNAMGWYRQAPGKERELVAAISNSGGSTYYADSVKGRFTISRDNAKNTVYLQMNSLKPEDTAVYYCAKRQWFPYYRGRDYWGQGTQVTVSS | high polyreactivity
20 | QVQLVESGGGLVQAGGSLRLSCAASGNTFNDYAMGWYRQAPGKERELVASISSGGSTYYADSVKGRFTISRDNAKNTVYLQMNSLKPEDTAVYYCAAEWHYIYAYDYWGQGTQVTVSS | low polyreactivity
21 | QVQLVESGGGLVQAGGSLRLSCAASGNTFNSYAMGWYRQAPGKEREFVAAISGSGSSTYYADSVKGRFTISRDNAKNTVYLQMNSLKPEDTAVYYCAARWRYYGSFDYWGQGTQVTVSS | high polyreactivity
22 | QVQLVESGGGLVQAGGSLRLSCAASGNTFNVYAMGWYRQAPGKERELVAAITLSGGSTYYADSVKGRFTISRDNEKNTVYLQMNSLKPEDTAVYYCNAEEDGTDYDYWGQGTQVTVSS | low polyreactivity

Row | Sequence | polyreactivity (PSR sort gate)
23 | QVQLVESGGGLVQAGGSLRLSCAASGNTFPGYAMGWYRQAPGKEREFVATITSNDGTTYYADSVKGRFTISRDNAKNTVYLQMNSLKPEDTAVYYSAKRLSDSWPPNWGYNYWGQGTQVTVTS | low polyreactivity
24 | QVQLVESGGGLVQAGGSLRLSCAASGNTFPVNAMGWYRQAPGKERDLVAAISRTGASTYYADSVKGRITISRDNAKNTVYLQMNSLKPEDTAVYYCAKYLKTPHNRRRVEALGYWGQGTQVTVSS | high polyreactivity
25 | QVQLVESGGGLVQAGGSLRLSCAASGNTFQYYAMGWYRQAPGKEREFVAAISRRGGSTYYADSVKGRFTISRDNAKNTVYLQMNSLKPEDTAVYYCNKVIFLSQSSYSFHYAYDYWGQGTQVTVSS | high polyreactivity
26 | QVQLVESGGGLVQAGGSLRLSCAASGNTFRFYTMGWYRQAPGKERELVAAINSSGRTNYADSVKGRFTISRDNAKNTVYLQMNSLKPEDTAVYYCAATVWVYRRSRDYWGQGTQVTVSS | low polyreactivity
27 | QVQLVESGGGLVQAGGSLRLSCAASGNTFRIYAMGWYRQAPGKERELVAAISQSGGSTYYADSVKVRFTISRDNAKYTVYLQMNSLKPEDTAVYYCQLIRRGHDYWGQGTQVTVSS | high polyreactivity
28 | QVQLVESGGGLVQAGGSLRLSCAASGNTFRRNVMGWYRQAPGKERELVAAINRGGSTTYADSVKGRFTISRDNAKNTVFLQMNSLKPEDTAVYYCNAEKRGQSYRFDYWGQGTQVTVSS | high polyreactivity
29 | QVQLVESGGGLVQAGGSLRLSCAASGNTFRRYAMGWYRQAPGKEREFVAAISSSGGRTYYADSVKGRFTISRDNAKNTVYLQMNSLKPEDTAVYYCNAVSYWVRGEMDYWGQGTQVTVSS | high polyreactivity
30 | QVQLVESGGGLVQAGGSLRLSCAASGNTFRWYVMGWYRQAPGKERELVAAITSSGSTTYYADSVKGRFSISRDNAKNTVYLQMNSLKPEDTAVYYCAARNYGPYDYWGQGTQVTVSS | low polyreactivity
31 | QVQLVESGGGLVQAGGSLRLSCAASGNTFRYYAMGWYRQAPGKERELLAAINSRGGTTSYADSVKGRFTISRDNAKNTVYLQMNSLKPEDTAVYYCNKYIRYPFKRYGYWGQGTQVTVSS | high polyreactivity
32 | QVQLVESGGGLVQAGGSLRLSCAASGNTFSISAMGWYRLAPGKERELVAAISLSGGSTYYADSVKGRFTISRDNAKNTVYLQMNSLKPEDTAVYYCAADVFTARRRYDYWGQGTQLTVSS | low polyreactivity
33 | QVQLVESGGGLVQAGGSLRLSCAASGNTFSWYAMGWYRQAPGKERELVAVITSGGSTNYADSVKGRFTISRDNAKNTVYLQMNSLKPEDTAVYYCNKGLSRSYWWVDYWGQGTQVTVSS | low polyreactivity
34 | QVQLVESGGGLVQAGGSLRLSCAASGNTFSYYAMGRYRQSPGKEREFVAAIRKSGASTYYADTVKGRFTISRDNAKNTVYLQINSLKPEDTALYYCAADGQVSYALGFDYWGQGTQVTVSS | high polyreactivity
35 | QVQLVESGGGLVQAGGSLRLSCAASGNTFTRNAMGWYRQAPGKERELVAAITGRGGTYYADSVKGRFTISRDNAKNTVYLQMNSLKPEDTAVYYCAAASVTRRDLDYWGQGTQVTVSS | high polyreactivity
36 | QVQLVESGGGLVQAGGSLRLSCAASGNTFTYYAMGWYRQAPGKERELVAAINIDVASTYYADSVKGRFTISRDNAKNTVYLQMNSLKPEDTAVYYCAAEVGVYPVYWYDYWGQGTQVTVSS | low polyreactivity
37 | QVQLVESGGGLVQAGGSLRLSCAASGNTFVANDMGWYRQAPGKERELVAVISGSGGDTYYADSVKGRFTISRDNAKNTVYLQMNSLKPEDTAVYYFAADWYGRETDRSDSDYEYWGQGTKVTVSS | low polyreactivity
38 | QVQLVESGGGLVQAGGSLRLSCAASGNTFVINTMGWYRQAPGKERELVAGISRRGTSTYYEDSVKGRFTISRDNAKNSVYLQMNSLKPEDTEVYYCAVYSEIVRYEYWGQGTQVTVSS | high polyreactivity
39 | QVQLVESGGGLVQAGGSLRLSCAASGNTFVLYAMGWYRQAPGKERELVAAINNGGSTYADSVKGRFTISRDNAKNTVYLQMNSLKPEDTAVYYCAARYQVGVYWRRYYWGQGTQVTVSS | high polyreactivity
40 | QVQLVESGGGLVQAGGSLRLSCAASGNTFVPYAMGWYRQAPGKERELVAAISWRGGSTYYADSVKGRFTISRDNAKNTVYLQMNSLKPEDTAVYYCAARTFYRPGLAGGYWGQGTQVTVSS | high polyreactivity
41 | QVQLVESGGGLVQAGGSLRLSCAASGNTFVRNAMGWYRQAPGKERELVASISQSGGTTYYADSVKGRFTISRDNAKNTVYLQMNSLKPEDTAVYYCNAARYRRSPGHTKYNYWGQGTQVTVSS | high polyreactivity
42 | QVQLVESGGGLVQAGGSLRLSCAASGNTFVRNVMGWYRQAPGKERELVAAITWRSVRTYYADSVKGRFTISRDTAKNTVYLQMNSLKPEDTAVYYCAAASASRHGEYDYWGQGTQVTVSS | low polyreactivity
43 | QVQLVESGGGLVQAGGSLRLSCAASGNTFVSNARGWYSQAPGKEREWVAAIDSGGSTNYADSVKGRFTISRDNAKNTDYLQMNSLKPEDTAVYYCNRTSVYYYYWGQGTQVTVSS | low polyreactivity
